Publication PMC6915604

Target: β-glucosidase with N-terminal K-coil and N-terminal His-tag (KG)

Q: “human H chain ferritin with C-terminal E-coil, without the sequence of a His-tag (HE)” was tested. Which retention rate of relative enzyme activity of the KG-HE complex recovered in a magnetic field, after usage cycles 1 to 3 (93.8%, 82.5%, 56.3%); pH 4.5, 45 °C, 20 min did it give?
A: 93.8%
